Measurements reported in PMC3298758.
Read-outs that look alike come from different tables or passages of the source. Ends that are not written are not given here.

Experiments:
Factor X [1] = assay: SPR
Factor X [2] = assay: cross-linking
Factor X [3] = assay: ELISA
[4] = molecular target: Factor VIII light chain (A3C1C2 domains); assay: ELISA
Factor X [5] = assay: cross-linking; remark: listed apart in the source
Factor X [6] = assay: ELISA; remark: listed apart in the source
Factor X [7] = assay: SPR; remark: listed apart in the source

Row | Molecule | Kd (Factor X [1]) [nM] | further results
1 | A3C1C2 subunit from FVIII variant Leu2013Ala (from UniProt P00451 1709-2351) (domain or fragment) | 63.9 | –
2 | A3C1C2 subunit from FVIII variant Phe2014Ala (from UniProt P00451 1709-2351) (domain or fragment) | 104 | –
3 | A3C1C2 subunit from FVIII variant Thr2012Ala (from UniProt P00451 1709-2351) (domain or fragment) | 85.8 | –
4 | A3C1C2 subunit from FVIII variant Thr2012Ala/Leu2013Ala/Phe2014Ala (from UniProt P00451 1709-2351) (domain or fragment) | 239 | –
5 | A3C1C2 subunit from FVIII variant Thr2012Ala/Phe2014Ala (from UniProt P00451 1709-2351) (domain or fragment) | 193 | –
6 | Factor VIII light chain (A3C1C2 domains) (domain or fragment) | 165 | stoichiometry N (Factor X [2]): 1; Kd (Factor X [3]): 370 nM
7 | Factor X (natural protein) | – | Kd [4]: 89.9 nM; Ki [4]: 154 nM
8 | active site-modified activated protein C (DEGR-APC) (enzyme) | – | Ki [4]: 82.7 nM
9 | HAGMSTLFLV (also: biotinylated, position not given here) [biotinylated 2007-2016 peptide] | – | stoichiometry N (Factor X [5]): 1
10 | HAGMSTLFLV [synthetic peptide corresponding to FVIII A3 residues 2007-2016] | – | Ki (Factor X [6]): 152000 nM; percent inhibition of FVIII LC binding to FX at 800 μM peptide (Factor X [6]): 80%; Kd (Factor X [7]): 7700 nM

Continued, in another order:

Row | Kd (Factor X [1]) [nM] | Molecule | further results
11 | 45.1 | A3C1C2 subunit from FVIII variant Leu2015Ala (from UniProt P00451 1709-2351) (domain or fragment) | –
12 | 59.5 | A3C1C2 subunit from FVIII variant Met2010Ala (from UniProt P00451 1709-2351) (domain or fragment) | –
13 | 59.4 | A3C1C2 subunit from FVIII variant Ser2011Ala (from UniProt P00451 1709-2351) (domain or fragment) | –
14 | 55.7 | A3C1C2 subunit from FVIII variant Val2016Ala (from UniProt P00451 1709-2351) (domain or fragment) | –
15 | 57 | A3C1C2 subunit from recombinant wild type FVIII (from UniProt P00451 1709-2351) (domain or fragment) | –
